Measurements as given in publication PMC10897158.

Key:
Details in all cases: remark: other sources report otherwise
[1] = target: T1, E2 ubiquitin-conjugating enzyme USE1 (endogenous, wild type) (human (endogenous in HEK293T, human fibroblasts and iPSC-derived neurons)), Q9H832; assay: FRET or BRET; FLIM-FRET (two-photon FLIM) in iPSC-derived autonomic neurons of healthy controls; endogenous USE1 (donor, Alexa 488) and UBA6 (acceptor, Alexa 555); lifetime of donor only minus donor and acceptor
T1 chain: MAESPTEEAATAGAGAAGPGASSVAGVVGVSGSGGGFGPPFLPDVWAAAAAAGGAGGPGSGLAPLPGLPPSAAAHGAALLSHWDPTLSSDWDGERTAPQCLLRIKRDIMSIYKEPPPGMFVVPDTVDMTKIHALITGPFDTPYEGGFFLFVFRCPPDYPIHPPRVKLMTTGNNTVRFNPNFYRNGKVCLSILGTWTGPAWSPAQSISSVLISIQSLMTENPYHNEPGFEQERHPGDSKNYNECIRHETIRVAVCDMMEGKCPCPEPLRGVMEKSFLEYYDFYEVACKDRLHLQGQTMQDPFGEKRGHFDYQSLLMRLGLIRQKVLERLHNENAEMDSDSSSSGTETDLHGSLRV

[2] = target: T1, E2 ubiquitin-conjugating enzyme USE1 …; assay: FRET or BRET; FLIM-FRET (two-photon FLIM) in iPSC-derived autonomic neurons of CCHS patients (PHOX2B polyalanine expansion); endogenous USE1 (donor, Alexa 488) and UBA6 (acceptor, Alexa 555); lifetime of donor only minus donor and acceptor
[3] = target: T1, E2 ubiquitin-conjugating enzyme USE1 …; assay: FRET or BRET; FLIM-FRET (two-photon FLIM) in fixed WT and USE1 ΔPolyAla KO HEK293T cells; endogenous USE1 and UBA6 stained, secondary antibodies Alexa 488 (donor, USE1) and Alexa 555 (acceptor, UBA6); lifetime of donor only minus donor and acceptor

B1: E1 ubiquitin-activating enzyme UBA6 (endogenous), A0AVT1 1-1052 (enzyme)
chain: MEGSEPVAAHQGEEASCSSWGTGSTNKNLPIMSTASVEIDDALYSRQRYVLGDTAMQKMAKSHVFLSGMGGLGLEIAKNLVLAGIKAVTIHDTEKCQAWDLGTNFFLSEDDVVNKRNRAEAVLKHIAELNPYVHVTSSSVPFNETTDLSFLDKYQCVVLTEMKLPLQKKINDFCRSQCPPIKFISADVHGIWSRLFCDFGDEFEVLDTTGEEPKEIFISNITQANPGIVTCLENHPHKLETGQFLTFREINGMTGLNGSIQQITVISPFSFSIGDTTELEPYLHGGIAVQVKTPKTVFFESLERQLKHPKCLIVDFSNPEAPLEIHTAMLALDQFQEKYSRKPNVGCQQDSEELLKLATSISETLEEKPDVNADIVHWLSWTAQGFLSPLAAAVGGVASQEVLKAVTGKFSPLCQWLYLEAADIVESLGKPECEEFLPRGDRYDALRACIGDTLCQKLQNLNIFLVGCGAIGCEMLKNFALLGVGTSKEKGMITVTDPDLIEKSNLNRQFLFRPHHIQKPKSYTAADATLKINSQIKIDAHLNKVCPTTETIYNDEFYTKQDVIITALDNVEARRYVDSRCLANLRPLLDSGTMGTKGHTEVIVPHLTESYNSHRDPPEEEIPFCTLKSFPAAIEHTIQWARDKFESSFSHKPSLFNKFWQTYSSAEEVLQKIQSGHSLEGCFQVIKLLSRRPRNWSQCVELARLKFEKYFNHKALQLLHCFPLDIRLKDGSLFWQSPKRPPSPIKFDLNEPLHLSFLQNAAKLYATVYCIPFAEEDLSADALLNILSEVKIQEFKPSNKVVQTDETARKPDHVPISSEDERNAIFQLEKAILSNEATKSDLQMAVLSFEKDDDHNGHIDFITAASNLRAKMYSIEPADRFKTKRIAGKIIPAIATTTATVSGLVALEMIKVTGGYPFEAYKNCFLNLAIPIVVFTETTEVRKTKIRNGISFTIWDRWTVHGKEDFTLLDFINAVKEKYGIEPTMVVQGVKMLYVPVMPGHAKRLKLTMHKLVKPTTEKKYVDLTVSFAPDIDGDEDLPGPPVRYYFSHDTD
Q: Which results are given for B1?
A: difference in fluorescence lifetime (donor only minus donor and acceptor) [1]: 0.253; difference in fluorescence lifetime (donor only minus donor and acceptor) [2]: 0.025; difference in fluorescence lifetime (donor only to donor and acceptor) [3]: 0.099 ns
